# Measurements: publication PMC6555819, “Comprehensive study of nuclear receptor DNA binding provides a revised framework for understanding receptor specificity”
# Numbering of substitutions follows the chain as printed.
# B1: NRC3_wobSeed103_DR4_A13C_o1 (dsDNA)
# DNA 1: GCGCATATAGGTCATACAAGGTGAAAGTCCGATTGTGCGATTGACAGCGTAGAATGAAGG
# DNA 2: CCTTCATTCTACGCTGTCAATCGCACAATCGGACTTTCACCTTGTATGACCTATATGCGC
# B2: NRC3_wobSeed97_DR4_A17C_o1 (dsDNA)
# DNA 1: GCCAAACTAGGTCACGCAAGGTCAAAGTCGAATGACGCGATTGACAGCGTAGAATGAAGG
# DNA 2: CCTTCATTCTACGCTGTCAATCGCGTCATTCGACTTTGACCTTGCGTGACCTAGTTTGGC
# B3: NRC3_wobSeed117_DR4_A15C_o1 (dsDNA)
# DNA 1: GCCGTCAAAGTTCACCTAAGGTAACGTAAAGCACGCGCGATTGACAGCGTAGAATGAAGG
# DNA 2: CCTTCATTCTACGCTGTCAATCGCGCGTGCTTTACGTTACCTTAGGTGAACTTTGACGGC
# B4: NRC3_wobSeed113_DR4_T8C_o1 (dsDNA)
# DNA 1: GCATATGCAGGTTAGCTGGGGTCATTCAGACTAGGCGCGATTGACAGCGTAGAATGAAGG
# DNA 2: CCTTCATTCTACGCTGTCAATCGCGCCTAGTCTGAATGACCCCAGCTAACCTGCATATGC
# B5: NRC3_wobSeed113_DR4_G29T_o1 (dsDNA)
# DNA 1: B4 DNA 1 with C8T, G29T
# DNA 2: B4 DNA 2 with C32A, G53A
# B6: NRC3_wobSeed117_DR4_C16T_o1 (dsDNA)
# DNA 1: B3 DNA 1 with C15A, C16T
# DNA 2: B3 DNA 2 with G45A, G46T
# B7: NRC3_wobSeed106_DR4_G15A_o1 (dsDNA)
# DNA 1: GCCTCGAAAGGTCGATTGAGGTGAGTATACGGATAAGCGATTGACAGCGTAGAATGAAGG
# DNA 2: CCTTCATTCTACGCTGTCAATCGCTTATCCGTATACTCACCTCAATCGACCTTTCGAGGC
# B8: NRC3_wobSeed118_DR4_G24A_o1 (dsDNA)
# DNA 1: GCTTACCAAGGTGAGCTGAGGTCATTGATCCAACTCGCGATTGACAGCGTAGAATGAAGG
# DNA 2: CCTTCATTCTACGCTGTCAATCGCGAGTTGGATCAATGACCTCAGCTCACCTTGGTAAGC
# B9: NRC3_wobSeed98_DR4_T8G_o1 (dsDNA)
# DNA 1: GCACTAGGTGGTCAGCTGAGGTCACACACAATTCGGGCGATTGACAGCGTAGAATGAAGG
# DNA 2: CCTTCATTCTACGCTGTCAATCGCCCGAATTGTGTGTGACCTCAGCTGACCACCTAGTGC
# B10: NRC3_wobSeed101_DR4_C18G_o1 (dsDNA)
# DNA 1: GCCCTTACGGGTCACTCGAGGTTATAGCATCGGAGTGCGATTGACAGCGTAGAATGAAGG
# DNA 2: CCTTCATTCTACGCTGTCAATCGCACTCCGATGCTATAACCTCGAGTGACCCGTAAGGGC
# B11: NRC3_wobSeed106_DR4_T4G_o1 (dsDNA)
# DNA 1: B7 DNA 1 with T4G, A15G
# DNA 2: B7 DNA 2 with T46C, A57C
# B12: NRC3_wobSeed114_DR4_G17C_o1 (dsDNA)
# DNA 1: GCAATACAGGGTCATCCTAGGCCAGAGTACGCACAGGCGATTGACAGCGTAGAATGAAGG
# DNA 2: CCTTCATTCTACGCTGTCAATCGCCTGTGCGTACTCTGGCCTAGGATGACCCTGTATTGC
# B13: NRC3_wobSeed119_DR4_T21G_o1 (dsDNA)
# DNA 1: GCGGAACGAGGGCATTCGAGGTGATAGCATGGCGATGCGATTGACAGCGTAGAATGAAGG
# DNA 2: CCTTCATTCTACGCTGTCAATCGCATCGCCATGCTATCACCTCGAATGCCCTCGTTCCGC
# B14: NRC3_wobSeed102_DR4_C12T_o1 (dsDNA)
# DNA 1: GCCCTAGCAGGTCAATCTGGGTCACTCAAGGCTTGAGCGATTGACAGCGTAGAATGAAGG
# DNA 2: CCTTCATTCTACGCTGTCAATCGCTCAAGCCTTGAGTGACCCAGATTGACCTGCTAGGGC
# B15: NRC3_wobSeed114_DR4_T18G_o1 (dsDNA)
# DNA 1: B12 DNA 1 with C17G, T18G
# DNA 2: B12 DNA 2 with A43C, G44C
# B16: NRC3_wobSeed37_DR1_A25G_o1 (dsDNA)
# DNA 1: GCCGTCCAAGGTCAAAGGTCAGTGGAGAGATGACGGGCGATTGACAGCGTAGAATGAAGG
# DNA 2: CCTTCATTCTACGCTGTCAATCGCCCGTCATCTCTCCACTGACCTTTGACCTTGGACGGC
# B17: NRC3_wobSeed73_DR3_A16T_o1 (dsDNA)
# DNA 1: GCCAAACTAGGTCACTGAGGTCAAAGTCCGTGCGTAGCGATTGACAGCGTAGAATGAAGG
# DNA 2: CCTTCATTCTACGCTGTCAATCGCTACGCACGGACTTTGACCTCAGTGACCTAGTTTGGC
# B18: NRC3_wobSeed103_DR4_A13T_o1 (dsDNA)
# DNA 1: B1 DNA 1 with C13T
# DNA 2: B1 DNA 2 with G48A
# B19: NRC3_wobSeed118_DR4_G15C_o1 (dsDNA)
# DNA 1: B8 DNA 1 with G15C, A24G
# DNA 2: B8 DNA 2 with T37C, C46G
# B20: NRC3_wobSeed112_DR4_C22T_o1 (dsDNA)
# DNA 1: GCTAGCCTAGGTCAGATCGGGTCAGTATACGCTATAGCGATTGACAGCGTAGAATGAAGG
# DNA 2: CCTTCATTCTACGCTGTCAATCGCTATAGCGTATACTGACCCGATCTGACCTAGGCTAGC
# B21: NRC3_wobSeed118_DR4_A8G_o1 (dsDNA)
# DNA 1: B8 DNA 1 with A8G, A24G
# DNA 2: B8 DNA 2 with T37C, T53C
# B22: NRC3_wobSeed110_DR4_T19A_o1 (dsDNA)
# DNA 1: GCTCTGCTAGGTCAACGAAGGTCAGCTAATCTGCTAGCGATTGACAGCGTAGAATGAAGG
# DNA 2: CCTTCATTCTACGCTGTCAATCGCTAGCAGATTAGCTGACCTTCGTTGACCTAGCAGAGC
# B23: NRC3_wobSeed100_DR4_A17T_o1 (dsDNA)
# DNA 1: GCCCTACTGGGCCACGTAAGGTCATTGATTCAGTGAGCGATTGACAGCGTAGAATGAAGG
# DNA 2: CCTTCATTCTACGCTGTCAATCGCTCACTGAATCAATGACCTTACGTGGCCCAGTAGGGC
# B24: NRC3_wobSeed121_DR5_T8C_o1 (dsDNA)
# DNA 1: GCCAAACCAGGTCACCGGAAGGTCAAAGTCCGCATGGCGATTGACAGCGTAGAATGAAGG
# DNA 2: CCTTCATTCTACGCTGTCAATCGCCATGCGGACTTTGACCTTCCGGTGACCTGGTTTGGC
# B25: NRC3_wobSeed112_DR4_T8G_o1 (dsDNA)
# DNA 1: B20 DNA 1 with T8G, T22C
# DNA 2: B20 DNA 2 with A39G, A53C
# B26: NRC3_wobSeed120_DR4_A17T_o1 (dsDNA)
# DNA 1: GCCCGAGTAGGTTACGTGGGGGCATTCAGTGCGAATGCGATTGACAGCGTAGAATGAAGG
# DNA 2: CCTTCATTCTACGCTGTCAATCGCATTCGCACTGAATGCCCCCACGTAACCTACTCGGGC
# B27: NRC3_wobSeed130_DR5_G24C_o1 (dsDNA)
# DNA 1: GCCTCGAAAGGTCGTGCTCAGGTCAGTATACCAAACGCGATTGACAGCGTAGAATGAAGG
# DNA 2: CCTTCATTCTACGCTGTCAATCGCGTTTGGTATACTGACCTGAGCACGACCTTTCGAGGC
# B28: NRC3_wobSeed85_DR3_A16C_o1 (dsDNA)
# DNA 1: GCCGTCCAAGGTCAGCGAGGTCAGTGAATGCCGAGTGCGATTGACAGCGTAGAATGAAGG
# DNA 2: CCTTCATTCTACGCTGTCAATCGCACTCGGCATTCACTGACCTCGCTGACCTTGGACGGC
# B29: NRC3_wobSeed103_DR4_A16T_o1 (dsDNA)
# DNA 1: B1 DNA 1 with C13A, A16T
# DNA 2: B1 DNA 2 with T45A, G48T
# B30: NRC3_wobSeed49_DR2_A15T_o1 (dsDNA)
# DNA 1: GCCAAACTAGGTCATGAGGTCAAAGTCCGCTTCCCGGCGATTGACAGCGTAGAATGAAGG
# DNA 2: CCTTCATTCTACGCTGTCAATCGCCGGGAAGCGGACTTTGACCTCATGACCTAGTTTGGC
# B31: NRC3_wobSeed108_DR4_T23C_o1 (dsDNA)
# DNA 1: GCGCGACTGGGGCAAAGCAGGTCACCATAAGGTTGGGCGATTGACAGCGTAGAATGAAGG
# DNA 2: CCTTCATTCTACGCTGTCAATCGCCCAACCTTATGGTGACCTGCTTTGCCCCAGTCGCGC
# B32: NRC3_wobSeed138_DR5_T12G_o1 (dsDNA)
# DNA 1: GCGATACAGGGGCAGCTAGAGGCCAGAGTATGGAAAGCGATTGACAGCGTAGAATGAAGG
# DNA 2: CCTTCATTCTACGCTGTCAATCGCTTTCCATACTCTGGCCTCTAGCTGCCCCTGTATCGC
# B33: NRC3_wobSeed136_DR5_T12C_o1 (dsDNA)
# DNA 1: GCTAGCCTAGGCCATTCAGGGGCCAGTATAGAAAGCGCGATTGACAGCGTAGAATGAAGG
# DNA 2: CCTTCATTCTACGCTGTCAATCGCGCTTTCTATACTGGCCCCTGAATGGCCTAGGCTAGC
# B34: NRC3_wobSeed122_DR5_C24A_o1 (dsDNA)
# DNA 1: GCGCTAGTTGGTCAGTAAAAGGTAACACACCGGTCGGCGATTGACAGCGTAGAATGAAGG
# DNA 2: CCTTCATTCTACGCTGTCAATCGCCGACCGGTGTGTTACCTTTTACTGACCAACTAGCGC
# Biological target: THRa:RXRa (Homo sapiens, UniProt P10827;P19793 full;full)
# Experiment: no ligand; PBM; 90 nM : 90 nM RXRa; PBS pH 7.4, 2% milk, 0.02% Triton X-100, 1 mM DTT, BSA, 0.4 mg/ml salmon testes DNA
# Conditions: tags: His kept;His cleaved; copies: 1;1; label: surface-attached array probe
# Chain of THRa:RXRa (P10827 other isoform, or with tags, fused parts or gaps, chain 1 of 2): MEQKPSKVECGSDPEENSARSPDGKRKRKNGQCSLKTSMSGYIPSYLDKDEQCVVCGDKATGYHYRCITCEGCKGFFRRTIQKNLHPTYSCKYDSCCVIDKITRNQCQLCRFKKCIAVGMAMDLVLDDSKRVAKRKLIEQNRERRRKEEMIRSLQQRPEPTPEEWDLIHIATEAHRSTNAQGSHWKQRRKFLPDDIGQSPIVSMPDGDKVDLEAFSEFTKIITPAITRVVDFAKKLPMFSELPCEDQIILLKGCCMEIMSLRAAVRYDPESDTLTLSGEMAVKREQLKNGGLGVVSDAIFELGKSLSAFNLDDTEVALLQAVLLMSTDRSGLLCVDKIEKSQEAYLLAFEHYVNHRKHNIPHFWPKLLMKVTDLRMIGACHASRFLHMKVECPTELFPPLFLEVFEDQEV
# Chain of THRa:RXRa (P19793 whole entry, chain 2 of 2): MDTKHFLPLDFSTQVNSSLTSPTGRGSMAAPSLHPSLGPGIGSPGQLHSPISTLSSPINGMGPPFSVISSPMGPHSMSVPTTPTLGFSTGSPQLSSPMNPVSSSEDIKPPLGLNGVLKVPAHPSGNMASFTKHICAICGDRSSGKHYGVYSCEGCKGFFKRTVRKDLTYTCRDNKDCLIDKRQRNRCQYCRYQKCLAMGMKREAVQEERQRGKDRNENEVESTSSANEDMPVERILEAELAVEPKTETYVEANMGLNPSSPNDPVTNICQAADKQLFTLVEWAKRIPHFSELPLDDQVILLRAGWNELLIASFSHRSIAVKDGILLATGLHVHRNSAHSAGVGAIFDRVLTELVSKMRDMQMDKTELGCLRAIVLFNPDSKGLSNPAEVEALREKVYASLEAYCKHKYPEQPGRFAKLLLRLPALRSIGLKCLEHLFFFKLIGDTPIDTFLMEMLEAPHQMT
binder,measurement,value
B1,binding signal,5.57 PBM z-score against 500 random probes
B2,binding signal,5.55 PBM z-score against 500 random probes
B3,binding signal,5.54 PBM z-score against 500 random probes
B4,binding signal,5.52 PBM z-score against 500 random probes
B5,binding signal,5.52 PBM z-score against 500 random probes
B6,binding signal,5.49 PBM z-score against 500 random probes
B7,binding signal,5.36 PBM z-score against 500 random probes
B8,binding signal,5.35 PBM z-score against 500 random probes
B9,binding signal,5.35 PBM z-score against 500 random probes
B10,binding signal,5.34 PBM z-score against 500 random probes
B11,binding signal,5.31 PBM z-score against 500 random probes
B12,binding signal,5.26 PBM z-score against 500 random probes
B13,binding signal,5.22 PBM z-score against 500 random probes
B14,binding signal,5.18 PBM z-score against 500 random probes
B15,binding signal,5.17 PBM z-score against 500 random probes
B16,binding signal,5.12 PBM z-score against 500 random probes
B17,binding signal,5.07 PBM z-score against 500 random probes
B18,binding signal,5.07 PBM z-score against 500 random probes
B19,binding signal,5.05 PBM z-score against 500 random probes
B20,binding signal,5.04 PBM z-score against 500 random probes
B21,binding signal,5.02 PBM z-score against 500 random probes
B22,binding signal,5.01 PBM z-score against 500 random probes
B23,binding signal,4.98 PBM z-score against 500 random probes
B24,binding signal,4.95 PBM z-score against 500 random probes
B25,binding signal,4.92 PBM z-score against 500 random probes
B26,binding signal,4.87 PBM z-score against 500 random probes
B27,binding signal,4.84 PBM z-score against 500 random probes
B28,binding signal,4.81 PBM z-score against 500 random probes
B29,binding signal,4.81 PBM z-score against 500 random probes
B30,binding signal,4.8 PBM z-score against 500 random probes
B31,binding signal,4.79 PBM z-score against 500 random probes
B32,binding signal,0.48 PBM z-score against 500 random probes
B33,binding signal,0.47 PBM z-score against 500 random probes
B34,binding signal,0.45 PBM z-score against 500 random probes
